{"source": "patent US20210355194A1", "about": "(TWIST BIOSCIENCE, published 2021)", "binders": {"B1": {"name": "variant 3-10 (antibody, V domains shown)", "VH": "EVQLLESGGGLVQPGGSLRLSCAASGFTFRSHAMSWVRQAPGKGLEWVSSISGGGASTYYADSVKGRFTISRDNSKNTLYLQMNSLRAEDTAVYYCARVKYLTTSSGWPRPYFDNWGQGTLVTVSS", "VL": "DIQMTQSPSSLSASVGDRVTITCRASQSIRKYLNWYQQKPGKAPKLLIYASSTLQRGVPSRFSGSGSGTDFTLTISSLQPEDFATYYCQQSLSTPFTFGGGTKVEIK"}, "B2": {"name": "variant 2-5 (antibody, V domains shown)", "VH": "EVQLLESGGGLVQPGGSLRLSCAASGFTFSDFAMAWVRQAPGKGLEWVSAISGSGDITYYADSVKGRFTISRDNSKNTLYLQMNSLRAEDTAVYYCAREADGLHSPWHFDLWGQGTLVTVSS", "VL": "DIQMTQSPSSLSASVGDRVTITCRASQSIHTYLNWYQQKPGKAPKLLIYAASALASGVPSRFSGSGSGTDFTLTISSLQPEDFATYYCQQSYSAPPYTFGQGTKVEIK"}, "B3": {"name": "2-8 (antibody, V domains shown)", "VH": "EVQLLESGGGLVQPGGSLRLSCAASGFTFSDFAMAWVRQAPGKGLEWVSAISGSGDITYYADSVKGRFTISRDNSKNTLYLQMNSLRAEDTAVYYCAREADGLHSPWHFDLWGQGTLVTVSS", "VL": "DIQMTQSPSSLSASVGDRVTITCRASQSIDTYLNWYQQKPGKAPKLLIYAASALASGVPSRFSGSGSGTDFTLTISSLQPEDFATYYCQQSYSAPPYTFGQGTKVEIK", "notes": "also called variant 2-8"}, "B4": {"name": "variant 2-8 (antibody, V domains shown)", "VH": "EVQLLESGGGLVQPGGSLRLSCAASGFTFSDFAMAWVRQAPGKGLEWVSAISGSGDITYYADSVKGRFTISRDNSKNTLYLQMNSLRAEDTAVYYCAREADGLHSPWHFDLWGQGTLVTVSS", "VL": "DIQMTQSPSSLSASVGDRVTITCRASQSIDTYLNWYQQKPGKAPKLLIYAASALASGVPSRFSGSGSGTDFTLTISSLQPEDFATYYCQQSYSAPPYTFGQGTKVEIK"}, "B5": {"name": "variant 2-12 (antibody, V domains shown)", "VH": "EVQLLESGGGLVQPGGSLRLSCAASGFTFSDYPMNWVRQAPGKGLEWVSTISGSGGITFYADSVKGRFTISRDNSKNTLYLQMNSLRAEDTAVYYCVRHDEYSFDYWGQGTLVTVSS", "VL": "DIQMTQSPSSLSASVGDRVTITCRASQSIDNYLNWYQQKPGKAPKLLIYGVSALQSGVPSRFSGSGSGTDFTLTISSLQPEDFATYYCQQSHSAPPYFFGQGTKVEIK"}, "B6": {"name": "SARS-CoV-2 S1 variant 2-5 (antibody, V domains shown)", "VH": "EVQLLESGGGLVQPGGSLRLSCAASGFTFSDFAMAWVRQAPGKGLEWVSAISGSGDITYYADSVKGRFTISRDNSKNTLYLQMNSLRAEDTAVYYCAREADGLHSPWHFDLWGQGTLVTVSS", "VL": "DIQMTQSPSSLSASVGDRVTITCRASQSIHTYLNWYQQKPGKAPKLLIYAASALASGVPSRFSGSGSGTDFTLTISSLQPEDFATYYCQQSYSAPPYTFGQGTKVEIK"}, "B7": {"name": "2-12 (antibody, V domains shown)", "VH": "EVQLLESGGGLVQPGGSLRLSCAASGFTFSDYPMNWVRQAPGKGLEWVSTISGSGGITFYADSVKGRFTISRDNSKNTLYLQMNSLRAEDTAVYYCVRHDEYSFDYWGQGTLVTVSS", "VL": "DIQMTQSPSSLSASVGDRVTITCRASQSIDNYLNWYQQKPGKAPKLLIYGVSALQSGVPSRFSGSGSGTDFTLTISSLQPEDFATYYCQQSHSAPPYFFGQGTKVEIK", "notes": "also called variant 2-12"}, "B8": {"name": "2-4 (antibody, V domains shown)", "VH": "EVQLLESGGGLVQPGGSLRLSCAASGFTFSDFAMAWVRQAPGKGLEWVSAISGSGDITYYADSVKGRFTISRDNSKNTLYLQMNSLRAEDTAVYYCAREADGLHSPWHFDLWGQGTLVTVSS", "VL": "DIQMTQSPSSLSASVGDRVTITCRASQSIDTYLNWYQQKPGKAPKLLIYAASALASGVPSRFSGSGSGTDFTLTISSLQPEDFATYYCQQSYSAPPYTFGQGTKVEIK", "notes": "also called variant 2-4"}, "B9": {"name": "2-5 (antibody, V domains shown)", "VH": "EVQLLESGGGLVQPGGSLRLSCAASGFTFSDFAMAWVRQAPGKGLEWVSAISGSGDITYYADSVKGRFTISRDNSKNTLYLQMNSLRAEDTAVYYCAREADGLHSPWHFDLWGQGTLVTVSS", "VL": "DIQMTQSPSSLSASVGDRVTITCRASQSIHTYLNWYQQKPGKAPKLLIYAASALASGVPSRFSGSGSGTDFTLTISSLQPEDFATYYCQQSYSAPPYTFGQGTKVEIK", "notes": "also called variant 2-5"}, "B10": {"name": "variant 2-13 (antibody, V domains shown)", "VH": "EVQLLESGGGLVQPGGSLRLSCAASGFTFSDYPMNWVRQAPGKGLEWVSAISGSGDNTYYADSVKGRFTISRDNSKNTLYLQMNSLRAEDTAVYYCVRHDEYSFDYWGQGTLVTVSS", "VL": "DIQMTQSPSSLSASVGDRVTITCRASQSIDTYLNWYQQKPGKAPKLLIYGASALESGVPSRFSGSGSGTDFTLTISSLQPEDFATYYCQQSHSAPPYFFGQGTKVEIK"}, "B11": {"name": "2-9 (antibody, V domains shown)", "VH": "EVQLLESGGGLVQPGGSLRLSCAASGFTFPRYAMSWVRQAPGKGLEWVSTISGSGSTTYYADSVKGRFTISRDNSKNTLYLQMNSLRAEDTAVYYCARLIDAFDIWGQGTLVTVSS", "VL": "DIQMTQSPSSLSASVGDRVTITCRASQRIGTYLNWYQQKPGKAPKLLIYAASNLEGGVPSRFSGSGSGTDFTLTISSLQPEDFATYYCQQNYSTTWTFGQGTKVEIK", "notes": "also called variant 2-9"}, "B12": {"name": "variant 2-9 (antibody, V domains shown)", "VH": "EVQLLESGGGLVQPGGSLRLSCAASGFTFPRYAMSWVRQAPGKGLEWVSTISGSGSTTYYADSVKGRFTISRDNSKNTLYLQMNSLRAEDTAVYYCARLIDAFDIWGQGTLVTVSS", "VL": "DIQMTQSPSSLSASVGDRVTITCRASQRIGTYLNWYQQKPGKAPKLLIYAASNLEGGVPSRFSGSGSGTDFTLTISSLQPEDFATYYCQQNYSTTWTFGQGTKVEIK"}, "B13": {"name": "variant 2-2 (antibody, V domains shown)", "VH": "EVQLLESGGGLVQPGGSLRLSCAASGFTFSRHAMNWVRQAPGKGLEWVSGISGSGDETYYADSVKGRFTISRDNSKNTLYLQMNSLRAEDTAVYYCARDLPASYYDSSGYYWHNGMDVWGQGTLVTVSS", "VL": "DIQMTQSPSSLSASVGDRVTITCRASQTINTYLNWYQQKPGKAPKLLIYSASTLQSGVPSRFSGSGSGTDFTLTISSLQPEDFATYYCQQSYSTFTFGQGTKVEIK"}, "B14": {"name": "SARS-CoV-2 S1 variant 2-2 (antibody, V domains shown)", "VH": "EVQLLESGGGLVQPGGSLRLSCAASGFTFSRHAMNWVRQAPGKGLEWVSGISGSGDETYYADSVKGRFTISRDNSKNTLYLQMNSLRAEDTAVYYCARDLPASYYDSSGYYWHNGMDVWGQGTLVTVSS", "VL": "DIQMTQSPSSLSASVGDRVTITCRASQTINTYLNWYQQKPGKAPKLLIYSASTLQSGVPSRFSGSGSGTDFTLTISSLQPEDFATYYCQQSYSTFTFGQGTKVEIK"}, "B15": {"name": "2-2 (antibody, V domains shown)", "VH": "EVQLLESGGGLVQPGGSLRLSCAASGFTFSRHAMNWVRQAPGKGLEWVSGISGSGDETYYADSVKGRFTISRDNSKNTLYLQMNSLRAEDTAVYYCARDLPASYYDSSGYYWHNGMDVWGQGTLVTVSS", "VL": "DIQMTQSPSSLSASVGDRVTITCRASQTINTYLNWYQQKPGKAPKLLIYSASTLQSGVPSRFSGSGSGTDFTLTISSLQPEDFATYYCQQSYSTFTFGQGTKVEIK", "notes": "also called variant 2-2"}}, "key": {"[1]": {"target": "Acro COVID S1 (S1N-C82E8) (SARS-CoV-2, UniProt P0DTC2 16-685)", "assay": "phage ELISA"}, "[2]": {"target": "SARS-CoV-2 spike on VSV-pseudotype SARS-CoV-2 (SARS-CoV-2, UniProt P0DTC2 14-1273)", "assay": "cell-based or functional assay"}, "[3]": {"target": "T1, SARS-CoV-2 spike on live SARS-CoV-2 virus (SARS-CoV-2, UniProt P0DTC2 14-1273)", "assay": "cell-based or functional assay"}, "[4]": {"target": "T1, SARS-CoV-2 spike on live SARS-CoV-2 …", "assay": "cell-based or functional assay", "remark": "listed apart in the source"}, "[5]": {"target": "T2, SARS-CoV-2 S protein trimer (SARS-CoV-2, UniProt P0DTC2 14-1208)", "assay": "Carterra SPR, direct capture (DC), S trimer"}, "[6]": {"target": "T2, SARS-CoV-2 S protein trimer", "assay": "Carterra SPR, DB format, S trimer"}, "[7]": {"target": "T3, Acro COVID S1 (S1N-C82E8) (SARS-CoV-2, UniProt P0DTC2 16-685)", "T3 construct": "domain: subunit 1 (S1)", "assay": "phage ELISA"}, "[8]": {"target": "T3, Acro COVID S1 (S1N-C82E8)", "assay": "phage ELISA", "remark": "listed apart in the source"}, "[9]": {"target": "T2, SARS-CoV-2 S protein trimer", "assay": "Carterra SPR, Fc capture, S trimer"}}, "note": "Read-outs that look alike come from different tables or passages of the source."}
{"binder": "B1", "values": [{"measurement": "specificity ELISA, fold over background", "setting": "[1]", "result": 1.2, "unit": "fold over background"}]}
{"binder": "B2", "values": [{"measurement": "NC50", "setting": "[2]", "result": 18.3, "unit": "µg/mL"}, {"measurement": "EC80", "setting": "[3]", "result": 106, "unit": "µg/mL"}, {"measurement": "EC50", "setting": "[4]", "result": 18.3, "unit": "µg/mL"}]}
{"binder": "B3", "values": [{"measurement": "Kd", "setting": "[5]", "result": 47.4, "unit": "nM"}, {"measurement": "Kd", "setting": "[6]", "result": 115, "unit": "nM"}]}
{"binder": "B4", "values": [{"measurement": "specificity ELISA, fold over background", "setting": "[1]", "result": 35.9, "unit": "fold over background"}]}
{"binder": "B5", "values": [{"measurement": "specificity ELISA, fold over background", "setting": "[1]", "result": 39.8, "unit": "fold over background"}]}
{"binder": "B6", "values": [{"measurement": "ELISA fold over background", "setting": "[7]", "result": 38.3, "unit": "fold"}, {"measurement": "ELISA fold over background", "setting": "[8]", "result": 38.3, "unit": "fold"}]}
{"binder": "B7", "values": [{"measurement": "Kd", "setting": "[5]", "result": 63.8, "unit": "nM"}, {"measurement": "Kd", "setting": "[6]", "result": 6.4, "unit": "nM"}, {"measurement": "Kd", "setting": "[9]", "result": 3.2, "unit": "nM"}]}
{"binder": "B8", "values": [{"measurement": "Kd", "setting": "[6]", "result": 4340, "unit": "nM"}]}
{"binder": "B9", "values": [{"measurement": "Kd", "setting": "[5]", "result": 17.3, "unit": "nM"}, {"measurement": "Kd", "setting": "[9]", "result": 90.2, "unit": "nM"}]}
{"binder": "B10", "values": [{"measurement": "specificity ELISA, fold over background", "setting": "[1]", "result": 27.3, "unit": "fold over background"}]}
{"binder": "B11", "values": [{"measurement": "Kd", "setting": "[9]", "result": 23600, "unit": "nM"}]}
{"binder": "B12", "values": [{"measurement": "specificity ELISA, fold over background", "setting": "[1]", "result": 24.1, "unit": "fold over background"}]}
{"binder": "B13", "values": [{"measurement": "NC50", "setting": "[2]", "result": 67.6, "unit": "µg/mL"}, {"measurement": "EC80", "setting": "[3]", "result": 355, "unit": "µg/mL"}, {"measurement": "EC50", "setting": "[4]", "result": 67.6, "unit": "µg/mL"}]}
{"binder": "B14", "values": [{"measurement": "ELISA fold over background", "setting": "[7]", "result": 39.4, "unit": "fold"}, {"measurement": "ELISA fold over background", "setting": "[8]", "result": 39.4, "unit": "fold"}]}
{"binder": "B15", "values": [{"measurement": "Kd", "setting": "[5]", "result": 1.4, "unit": "nM"}, {"measurement": "Kd", "setting": "[6]", "result": 1.2, "unit": "nM"}, {"measurement": "Kd", "setting": "[9]", "result": 0.8, "unit": "nM"}]}
